# Laboratory results as given in article PMC3315326.
# Target: DNMT1 (UniProt P26358 1-1616)
# Assay: SPR
# Chain of DNMT1 (P26358 whole entry): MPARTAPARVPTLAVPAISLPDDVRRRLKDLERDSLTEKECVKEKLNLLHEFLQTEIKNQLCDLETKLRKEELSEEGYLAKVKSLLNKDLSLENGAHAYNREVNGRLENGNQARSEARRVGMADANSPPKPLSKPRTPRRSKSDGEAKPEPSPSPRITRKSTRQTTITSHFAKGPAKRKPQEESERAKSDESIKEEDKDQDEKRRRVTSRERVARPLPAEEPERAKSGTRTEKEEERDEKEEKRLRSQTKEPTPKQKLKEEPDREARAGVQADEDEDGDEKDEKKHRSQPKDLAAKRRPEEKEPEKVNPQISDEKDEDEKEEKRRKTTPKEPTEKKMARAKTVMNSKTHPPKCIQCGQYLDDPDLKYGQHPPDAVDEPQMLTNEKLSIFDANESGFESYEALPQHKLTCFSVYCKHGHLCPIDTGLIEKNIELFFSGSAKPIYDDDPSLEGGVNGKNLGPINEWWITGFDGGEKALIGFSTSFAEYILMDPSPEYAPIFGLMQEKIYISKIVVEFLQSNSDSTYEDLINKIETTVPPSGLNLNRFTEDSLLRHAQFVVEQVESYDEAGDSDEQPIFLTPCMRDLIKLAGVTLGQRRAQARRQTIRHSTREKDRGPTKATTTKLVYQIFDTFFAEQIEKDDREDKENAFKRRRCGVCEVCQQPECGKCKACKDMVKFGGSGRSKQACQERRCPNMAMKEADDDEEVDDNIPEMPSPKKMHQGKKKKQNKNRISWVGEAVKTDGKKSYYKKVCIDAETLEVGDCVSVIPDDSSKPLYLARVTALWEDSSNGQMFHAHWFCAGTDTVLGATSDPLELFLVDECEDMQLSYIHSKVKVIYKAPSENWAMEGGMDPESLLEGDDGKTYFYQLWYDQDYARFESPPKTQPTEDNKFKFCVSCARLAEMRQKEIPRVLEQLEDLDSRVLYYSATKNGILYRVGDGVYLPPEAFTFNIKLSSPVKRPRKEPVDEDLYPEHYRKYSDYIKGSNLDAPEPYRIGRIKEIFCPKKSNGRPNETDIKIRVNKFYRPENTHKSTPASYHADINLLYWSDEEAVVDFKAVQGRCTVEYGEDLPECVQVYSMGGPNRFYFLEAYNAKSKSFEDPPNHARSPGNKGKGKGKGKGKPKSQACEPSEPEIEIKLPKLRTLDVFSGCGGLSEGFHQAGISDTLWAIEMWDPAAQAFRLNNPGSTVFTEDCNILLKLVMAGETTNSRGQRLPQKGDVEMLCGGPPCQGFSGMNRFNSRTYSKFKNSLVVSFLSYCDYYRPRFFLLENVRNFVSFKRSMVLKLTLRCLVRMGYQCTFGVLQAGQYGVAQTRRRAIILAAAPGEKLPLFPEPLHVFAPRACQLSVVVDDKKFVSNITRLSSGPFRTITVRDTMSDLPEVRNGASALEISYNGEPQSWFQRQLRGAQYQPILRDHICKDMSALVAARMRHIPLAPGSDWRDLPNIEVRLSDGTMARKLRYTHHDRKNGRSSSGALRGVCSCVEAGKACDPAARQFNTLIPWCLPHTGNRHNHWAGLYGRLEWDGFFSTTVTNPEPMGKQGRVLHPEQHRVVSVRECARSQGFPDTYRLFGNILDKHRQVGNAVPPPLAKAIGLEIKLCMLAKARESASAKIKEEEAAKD
binder,measurement,value
"hemimethylated 30-bp oligo (D1subHMF/D1subUMF) (dsDNA, 5-methylcytosine at position 15 of strand 1) DNA 1: GAAGCTGGGACTTCCGGCAGGAGAGTGCAA DNA 2: TTGCACTCTCCTGCCGGAAGTCCCAGCTTC",Kd,1070 nM
